Data: IntAct's records for PubMed 23260655

B1: Chromobox protein homolog 8 (Homo sapiens), Q9HC52 (parent)
chain: MELSAVGERVFAAEALLKRRIRKGRMEYLVKWKGWSQKYSTWEPEENILDARLLAAFEEREREMELYGPKKRGPKPKTFLLKAQAKAKAKTYEFRSDSARGIRIPYPGRSPQDLASTSRAREGLRNMGLSPPASSTSTSSTCRAEAPRDRDRDRDRDRERDRERERERERERERERERERGTSRVDDKPSSPGDSSKKRGPKPRKELPDPSQRPLGEPSAGLGEYLKGRKLDDTPSGAGKFPAGHSVIQLARRQDSDLVQCGVTSPSSAEATGKLAVDTFPARVIKHRAAFLEAKGQGALDPNGTRVRHGSGPPSSGGGLYRDMGAQGGRPSLIARIPVARILGDPEEESWSPSLTNLEKVVVTDVTSNFLTVTIKESNTDQGFFKEKR

Variants of: B1
Conditions: with af9_mouse Mllt3, A2AM29
Sequence of af9_mouse Mllt3, A2AM29 (A2AM29 whole entry): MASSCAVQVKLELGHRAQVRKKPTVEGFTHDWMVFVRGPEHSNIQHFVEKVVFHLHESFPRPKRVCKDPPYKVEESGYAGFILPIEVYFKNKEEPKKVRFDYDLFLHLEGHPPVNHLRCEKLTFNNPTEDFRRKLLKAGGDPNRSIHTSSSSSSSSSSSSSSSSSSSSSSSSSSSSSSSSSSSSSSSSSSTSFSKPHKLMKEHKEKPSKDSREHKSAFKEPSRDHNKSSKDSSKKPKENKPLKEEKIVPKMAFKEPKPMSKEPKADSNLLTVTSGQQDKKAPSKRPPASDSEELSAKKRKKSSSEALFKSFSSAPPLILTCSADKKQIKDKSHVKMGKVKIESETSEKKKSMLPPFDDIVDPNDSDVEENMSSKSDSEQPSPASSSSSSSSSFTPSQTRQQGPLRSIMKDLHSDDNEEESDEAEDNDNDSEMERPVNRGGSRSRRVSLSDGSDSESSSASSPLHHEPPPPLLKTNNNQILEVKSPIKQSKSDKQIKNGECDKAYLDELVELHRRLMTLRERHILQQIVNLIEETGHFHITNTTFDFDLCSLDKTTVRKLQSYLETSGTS

Variant | effect of a mutation on the interaction
MELSAVGERVFAAEALLKRRIRKGRMEYLVKWKGWSQKYSTWEPEENILDARLLAAFEEREREMELYGPKKRGPKPKTFLLKAQAKAKAKTYEFRSDSARGIRIPYPGRSPQDLASTSRAREGLRNMGLSPPASSTSTSSTCRAEAPRDRDRDRDRDRERDRERERERERERERERERERGTSRVDDKPSSPGDSSKKRGPKPRKELPDPSQRPLGEPSAGLGEYLKGRKLDDTPSGAGKFPAGHSVIQLARRQDSDLVQCGVTSPSSAEATGKLAVDTFPARVIKHRAAFLEAKGQGALDPNGTRVRHGSGPPSSGGGLYRDMGAQGGRPSLIVRIPVARILGDPEEESWSPSLTNLEKVVVTDVTSNFLTVTIKESNTDQGFFKEKR [A335V] | increasing interaction strength
